Reference: patent US20260184768A1 (Regeneron, published 2026)

Assays:
[1] = molecular target: T1, PcrV (aa136-257).6xhis (Pseudomonas aeruginosa); test: SPR (Biacore T200), mAb captured via anti-human Fc, PcrV injected, 25 C
T1 chain: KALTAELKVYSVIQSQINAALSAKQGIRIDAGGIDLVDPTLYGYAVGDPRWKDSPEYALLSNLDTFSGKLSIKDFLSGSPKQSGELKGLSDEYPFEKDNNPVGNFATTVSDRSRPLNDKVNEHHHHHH
Procedure: (§1) The equilibrium dissociation constant (KD) for different PcrV reagents binding to purified anti-PcrV monoclonal antibodies were determined using a real-time surface plasmon resonance based Biacore T200 biosensor. All binding studies were performed in 10 mM HEPES, 150 mM NaCl, 3.4 mM EDTA and 0.05% v/v Tween-20, pH 7.4 (HBS-EP) running buffer at 25° C. and 37° C. […] Proteins were injected over the captured anti-PcrV monoclonal antibody surface for 4 minutes at a flow rate of 50 μL/minute, while the dissociation of monoclonal antibody bound PcrV reagent was monitored for 10 minutes in HBS-EP running buffer.
(§2) Kinetic association (kₐ) and dissociation (kd) rate constants were determined by fitting the real-time sensorgrams to a 1:1 binding model using Scrubber 2.0c curve fitting software. Binding dissociation equilibrium constants (KD) and dissociative half-lives (t½) were calculated from the kinetic rate constants as:

[2] = molecular target: T2, full-length PcrV.6xhis (Pseudomonas aeruginosa); test: SPR (Biacore T200), mAb captured via anti-human Fc, PcrV injected, 37 C
T2 construct: Recombinant full-length V-tip protein of the type 3 secretion system, His-tagged; also called full-length PcrV with a C-terminal hexahistidine tag
Procedure: as §1, §2

[3] = molecular target: T2, full-length PcrV.6xhis; test: SPR (Biacore T200), mAb captured via anti-human Fc, PcrV injected, 25 C
Procedure: as §1, §2

[4] = molecular target: T1, PcrV (aa136-257).6xhis; test: SPR (Biacore T200), mAb captured via anti-human Fc, PcrV injected, 37 C
Procedure: as §1, §2

[5] = molecular target: T3, PcrV of P. aeruginosa strain ATCC 700888 (Pseudomonas aeruginosa strain ATCC …); test: cell-based or functional assay
[6] = molecular target: T4, PcrV of P. aeruginosa strain 6077 (Pseudomonas aeruginosa strain 6077); test: cell-based or functional assay
[7] = molecular target: T3, PcrV of P. aeruginosa strain ATCC 700888; test: cell-based or functional assay; remark: listed apart in the source
[8] = molecular target: T4, PcrV of P. aeruginosa strain 6077; test: cell-based or functional assay; remark: listed apart in the source
[9] = molecular target: PcrV 136-233 (Pseudomonas aeruginosa); test: ELISA, PcrV coated on plate, chemiluminescence
Procedure: (§3) Anti-PcrV monoclonal antibodies (mAbs) were assessed by ELISA for their ability to bind to recombinant PcrV proteins. […] The following morning, plates were washed three times with wash buffer (Imidazole buffered saline with Tween-20) and blocked for 1.5 hours at 25° C. with 200 μl of blocking buffer (3% BSA in PBS). […] Wells were washed three times and then incubated with 100 ng/ml anti-human HRP secondary antibody per well for one hour at 25° C. 100 μl of SuperSignal™ ELISA Pico Chemiluminescent Substrate was added to each well and signal was detected (Victor X3 plate reader, Perkin Elmer). Luminescence values were analyzed by a four-parameter logistic equation over a 10-point response curve (GraphPad Prism).

[10] = molecular target: T5, recombinant full-length P. aeruginosa PcrV (Pseudomonas aeruginosa); test: ELISA, PcrV coated on plate, chemiluminescence
T5 construct: Coated on ELISA plates; also called Full length PcrV; Full length PerV
Procedure: as §3

B1: REGN3514 (antibody, V domains shown)
VH: EMQLLESGGGLVQPGGSLRLSCAASGFTFSSYAMNWVRQAPGEGLEWVSAITISGITAYYTDSVKGRFTISRDNSKNTLYLQMNSLRAGDTAVYYCAKEEFLPGTHYYYGMDVWGQGTTVTVSS
VL: AIQMTQSPSSLSASVGDRVTITCRASQGIRNDLGWYQQKPGKAPKLVIYSASTLQSGVPSRFSGSGSGTDFTLSISSLQPDDFATYYCLQDYNYPWTFGQGTKVEIKR
notes: also called Control I; Control I-REGN3514
- Kd [1]: 0.83 nM
- koff [1]: 0.000122 s⁻¹
- kon [1]: 147000 M⁻¹ s⁻¹
- t½ [1]: 1.58 h
- 90 nM Ag Bound (RU) [2]: 141 RU
- Kd [2]: 0.453 nM
- koff [2]: 0.000196 s⁻¹
- kon [2]: 431000 M⁻¹ s⁻¹
- t½ [2]: 0.985 h
- 90 nM Ag Bound (RU) [3]: 169 RU
- Kd [3]: 0.146 nM
- koff [3]: 3.9e-05 s⁻¹
- kon [3]: 267000 M⁻¹ s⁻¹
- t½ [3]: 4.94 h
- Kd [4]: 2.42 nM
- koff [4]: 0.000596 s⁻¹
- kon [4]: 246000 M⁻¹ s⁻¹
- t½ [4]: 0.323 h
- Rabbit RBC Hemolysis Assay (IC50) [5]: 1.01 nM
- Rabbit RBC Hemolysis Assay (IC50) [6]: 2.44 nM
- A549 Cytotoxicity Assay (IC50) [7]: 17.8 nM
- A549 Cytotoxicity Assay (IC50) [8]: 0.807 nM
- EC50 [9]: 7.59 nM
- EC50 [10]: 0.696 nM

B2: H1H29339P (antibody, V domains shown)
VH: EVQLVESGGDLVQPGGSLRLSCAASGFTFNTYAMNWVRQAPGKGLEWVAVIGGSGYSTNYADSVKGRFTISRDNSKNTLYLQMNSLRTEDTAVYYCAKEGNIVALYWYFDLWGRGTLVTVSS
VL: DIQMTQSPSSLSASVGDRVTITCRASQSISRYLNWYQQKPGKAPKLLIYAASSLQGGVPSKFSGSGSGTDFTLTISSLQPEDFATYYCQQSSTTPLTFGGGTKVEIKR
- Kd [1]: 0.0955 nM
- koff [1]: 2.76e-05 s⁻¹
- kon [1]: 293000 M⁻¹ s⁻¹
- t½ [1]: 6.97 h
- 90 nM Ag Bound (RU) [2]: 130 RU
- Kd [2]: 0.0197 nM
- koff [2]: ≤ 1e-05 s⁻¹
- kon [2]: 508000 M⁻¹ s⁻¹
- t½ [2]: ≥ 19.2 h
- 90 nM Ag Bound (RU) [3]: 140 RU
- Kd [3]: ≤ 0.0274 nM
- koff [3]: ≤ 1e-05 s⁻¹
- kon [3]: 365000 M⁻¹ s⁻¹
- t½ [3]: ≥ 19.2 h
- Kd [4]: 0.186 nM
- koff [4]: 8.15e-05 s⁻¹
- kon [4]: 435000 M⁻¹ s⁻¹
- t½ [4]: 2.36 h
- Rabbit RBC Hemolysis Assay (IC50) [5]: 5.59 nM
- Rabbit RBC Hemolysis Assay (IC50) [6]: 2.3 nM
- A549 Cytotoxicity Assay (IC50) [7]: 7.82 nM
- A549 Cytotoxicity Assay (IC50) [8]: 0.0333 nM
- EC50 [9]: 0.856 nM
- EC50 [10]: 1.96 nM

B3: H1H29336P (antibody, V domains shown)
VH: EVQLVESGGGLVQPGGSLRLSCAASGFTFSSYAMTWVRQAPGKGLEWVSSIRGSGYSSDYADSVKGRFTISRDNSENTVYLQMNRLRAEDTAVYYCAKERSVTAYYYYGMDVWGQGTTVTVSS
VL: DIQLTQSPSFLSASVGDRVTITCWASQDISSFLTWYQQKPGIAPKLLIYTASTLQSGVPSRFSGSGSGTEFTLTISSLQPEDFATYYCQQLKSYPLTFGGGTKVEIKR
- Kd [1]: 0.0408 nM
- koff [1]: 1.48e-05 s⁻¹
- kon [1]: 367000 M⁻¹ s⁻¹
- t½ [1]: 13.1 h
- 90 nM Ag Bound (RU) [2]: 80.7 RU
- Kd [2]: ≤ 0.0116 nM
- koff [2]: ≤ 1e-05 s⁻¹
- kon [2]: 860000 M⁻¹ s⁻¹
- t½ [2]: ≥ 19.2 h
- 90 nM Ag Bound (RU) [3]: 102 RU
- Kd [3]: ≤ 0.0204 nM
- koff [3]: ≤ 1e-05 s⁻¹
- kon [3]: 490000 M⁻¹ s⁻¹
- t½ [3]: ≥ 19.2 h
- Kd [4]: 0.0809 nM
- koff [4]: 4.36e-05 s⁻¹
- kon [4]: 544000 M⁻¹ s⁻¹
- t½ [4]: 4.41 h
- Rabbit RBC Hemolysis Assay (IC50) [5]: 0.81 nM
- Rabbit RBC Hemolysis Assay (IC50) [6]: 0.205 nM
- A549 Cytotoxicity Assay (IC50) [7]: 6.37 nM
- A549 Cytotoxicity Assay (IC50) [8]: 0.84 nM
- EC50 [9]: 1.03 nM
- EC50 [10]: 2.28 nM

B4: H1H29332P (antibody, V domains shown)
VH: EVQLVESGGDLVQPGGSLRLSCKASGFTFSTFAMNWVRQAPGRGLEWVSAIGASGYSTYYVDSMKGRFTISRDNSKNTLYLQMNSLGAEDTAVYYCAKEYSVSSNYYYGMDVWGQGTTVTVSS
VL: DIQMTQSPSSLSASVGDRVTITCRASQTIRRYLNWYQQKAGKAPKLLIYAASSLLSGVPSRFSASGSGTDFTLTISSLQPEDFSTYYCQQTYSIPITFGQGTRLEIKR
- Kd [1]: 0.285 nM
- koff [1]: 3.83e-05 s⁻¹
- kon [1]: 133000 M⁻¹ s⁻¹
- t½ [1]: 5.03 h
- 90 nM Ag Bound (RU) [2]: 163 RU
- Kd [2]: 0.092 nM
- koff [2]: 2.68e-05 s⁻¹
- kon [2]: 293000 M⁻¹ s⁻¹
- t½ [2]: 7.19 h
- 90 nM Ag Bound (RU) [3]: 152 RU
- Kd [3]: 0.0548 nM
- koff [3]: 1.3e-05 s⁻¹
- kon [3]: 237000 M⁻¹ s⁻¹
- t½ [3]: 14.8 h
- Kd [4]: 0.595 nM
- koff [4]: 0.000106 s⁻¹
- kon [4]: 178000 M⁻¹ s⁻¹
- t½ [4]: 1.82 h
- Rabbit RBC Hemolysis Assay (IC50) [5]: 4.06 nM
- Rabbit RBC Hemolysis Assay (IC50) [6]: 15.3 nM
- A549 Cytotoxicity Assay (IC50) [7]: 32.9 nM
- A549 Cytotoxicity Assay (IC50) [8]: 6.47 nM
- EC50 [9]: 0.814 nM
- EC50 [10]: 2.12 nM

B5: REGN3977 (antibody, V domains shown)
VH: QVQLKQSGPGLVQPSQSLSITCTVSGFSLTSYGVHWVRQSPGKGLEWLGVIWSGGDTDYNAAFISRLSISKDNSKSQLFFKMNSLRATDTAIYYCARNRGDIYYDFTYAMDYWGQGTSVTVSS
VL: DIQMTQSPASLSASVGETVTITCRASGNIQNYLAWYQQTQGKSPQLLVYSAKTLADGVPSRFSGSGSGTQYSLKINSLQPEDFGSYYCQHFWSTPYTFGGGTKLEIKR
notes: also called Control III; REGN3977-Control III
- Kd [1]: 4.28 nM
- koff [1]: 0.000956 s⁻¹
- kon [1]: 223000 M⁻¹ s⁻¹
- t½ [1]: 0.202 h
- 90 nM Ag Bound (RU) [2]: 136 RU
- Kd [2]: 3.48 nM
- koff [2]: 0.000917 s⁻¹
- kon [2]: 263000 M⁻¹ s⁻¹
- t½ [2]: 0.21 h
- 90 nM Ag Bound (RU) [3]: 146 RU
- Kd [3]: 2.39 nM
- koff [3]: 0.000495 s⁻¹
- kon [3]: 207000 M⁻¹ s⁻¹
- t½ [3]: 0.39 h
- Kd [4]: 11.4 nM
- koff [4]: 0.00245 s⁻¹
- kon [4]: 216000 M⁻¹ s⁻¹
- t½ [4]: 0.0783 h

B6: H1H29329P (antibody, V domains shown)
VH: EVQLVESGGGLVQPGGSLRLSCAASGFTFSDHEMNWVRQAPGKGLEWISYIGSGVVTMYYADSVRGRFTISRDNAKKTLYLQMNSLRAEDTAVYYCARDRGYYFGSEAFHYWGQGTLVTVSS
VL: DIQMTQSPSTLSASVGDRVTITCRASQSISNWLAWYQQKPGKAPKLLIYKSSSLESGVPSRFSGSGSGTEFTLTISSLQPDDFATYYCQQYKSYSLTFGGGTKVEIKR
- Kd [1]: 15 nM
- koff [1]: 0.0023 s⁻¹
- kon [1]: 153000 M⁻¹ s⁻¹
- t½ [1]: 0.0833 h
- 90 nM Ag Bound (RU) [2]: 59.6 RU
- Kd [2]: 9.12 nM
- koff [2]: 0.00505 s⁻¹
- kon [2]: 554000 M⁻¹ s⁻¹
- t½ [2]: 0.0383 h
- 90 nM Ag Bound (RU) [3]: 81 RU
- Kd [3]: 5.16 nM
- koff [3]: 0.00095 s⁻¹
- kon [3]: 184000 M⁻¹ s⁻¹
- t½ [3]: 0.203 h
- Kd [4]: 107 nM
- koff [4]: 0.011 s⁻¹
- kon [4]: 103000 M⁻¹ s⁻¹
- t½ [4]: 0.0167 h
- Rabbit RBC Hemolysis Assay (IC50) [5]: 2.39 nM
- Rabbit RBC Hemolysis Assay (IC50) [6]: 56.4 nM
- A549 Cytotoxicity Assay (IC50) [7]: 54.3 nM
- A549 Cytotoxicity Assay (IC50) [8]: 10.8 nM
- EC50 [9]: 7.44 nM
- EC50 [10]: 0.597 nM
